Data: the supplement of paper PMC9732359
± gives the uncertainty stated by the source.

Assay: protein stability index of a GFP-peptide fusion (yeast GPS) (PSI 1-4); higher = more stable; sorted into four equal gates, so the index is relative within each strain
How it was run: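 Mid-log yeast cultures in leucine-free medium, carrying a pooled plasmid library, were sorted into four equal gates by their GFP/Cherry fluorescence ratio. Each plasmid expressed Cherry along with GFP fused upstream of a tiled 17-residue yeast protein peptide. Plasmids recovered from each gate were PCR-amplified and Illumina-sequenced, with reads assigned to strains by barcodes. The protein stability index was obtained by summing each gate's read frequency weighted by its gate number.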

Row | Sequence | protein stability index (doa10∆) | protein stability index (pdr5∆) | protein stability index (san1∆) | protein stability index (ubr1∆)
1 | PAFSFGISNGSESKDSD [YLR335W/NUP2] | 3.23 ± 0.093 | 3.05 ± 0.11 | 3.12 ± 0.063 | 3.08 ± 0.088
2 | LSKMENVNLDDYPDDSG [NAS6] | 2.75 ± 0.11 | 3.02 ± 0.11 | 2.83 ± 0.088 | 3.05 ± 0.091
3 | IYYDSYIHLAYSRSVDK [SSN2] | 2.71 ± 0.13 | 2.78 ± 0.14 | 2.89 ± 0.11 | 3.26 ± 0.088
4 | ERKTLERQQENLLIQRL [SWI3] | 3.07 ± 0.09 | 3.28 ± 0.087 | 3.12 ± 0.078 | 3.09 ± 0.067
5 | DSRLSRKQIDETQVLVS [BRR2] | 1.61 ± 0.055 | 1.83 ± 0.073 | 1.82 ± 0.072 | 2.13 ± 0.041
6 | NLEQINEDLEDGHYIEE [REC8] | 2.93 ± 0.088 | – | 2.98 ± 0.16 | 3.2 ± 0.088
7 | EIQRTMLELLNQLDGFD [RPT2] | 2.83 ± 0.088 | 2.97 ± 0.12 | 2.93 ± 0.067 | –
8 | KINSWDQVLVKGGEQIS [YJL041W/NSP1] | 2.04 ± 0.087 | 2.56 ± 0.085 | 3.29 ± 0.087 | 2.21 ± 0.073
9 | NAKIIDAEVAQFLEQGL [SRP68] | 2.83 ± 0.057 | 2.59 ± 0.045 | 2.12 ± 0.073 | 3.08 ± 0.041
10 | LNTLLVTSADSNLKISL [SWI1] | 2.71 ± 0.078 | 2.9 ± 0.065 | 2.89 ± 0.054 | 2.52 ± 0.08
11 | LPNQFPLKIHRTPYLTS [SWI1] | 2.07 ± 0.042 | 1.72 ± 0.045 | 1.65 ± 0.074 | 1.72 ± 0.038
12 | SYDKTVKLWEEDPDQEE [YGL100W/SEH1] | 3.32 ± 0.12 | 3.21 ± 0.079 | 3.3 ± 0.044 | 3.29 ± 0.06
13 | QRETMKERKLRENIAML [SMC1] | 3.42 ± 0.24 | 3.01 ± 0.19 | 3.04 ± 0.12 | 3.42 ± 0.066
14 | HIQGFPTLGERLDNLQD [DSN1] | 3.34 ± 0.11 | 3.39 ± 0.11 | 3.16 ± 0.046 | 3.05 ± 0.073
15 | EVDVCDKCGLMGYSGWC [RET1] | 2.15 ± 0.098 | 2.73 ± 0.086 | 2.32 ± 0.19 | 2.39 ± 0.088
16 | GYVIKVFNNGIVVLVPK [DIS3] | 2.59 ± 0.092 | 2.38 ± 0.079 | 2.39 ± 0.077 | 2.82 ± 0.067
17 | ENYEGKQDKTLQKVENQ [YIL149C/MLP2] | 3.2 ± 0.18 | 3.29 ± 0.14 | 2.8 ± 0.17 | 3.21 ± 0.21
18 | TGSNDRCIGDSDNVSFE [YMR129W/POM152] | 3.19 ± 0.066 | 2.73 ± 0.068 | 2.5 ± 0.077 | 3.09 ± 0.048
19 | RWDKEEYQSLMSLKDKL [SMC1] | 3.29 ± 0.076 | 3.31 ± 0.08 | 3.2 ± 0.11 | 3.09 ± 0.053
20 | MKYIQTEQQIEIPEGVT [RPL9B] | 2.4 ± 0.059 | 2.8 ± 0.063 | 2.39 ± 0.064 | 2.64 ± 0.053
21 | SGYNQEDSMIMNQSSID [RPB2] | 2.46 ± 0.11 | 2.67 ± 0.12 | – | 2.84 ± 0.067
22 | ELKDICSFAVTKSSLND [YML103C/NUP188] | 2.87 ± 0.072 | 2.96 ± 0.065 | 2.89 ± 0.072 | 3.02 ± 0.05
23 | ILNLLNILTTHLSHPGT [ECM29] | 2.03 ± 0.042 | 1.75 ± 0.04 | 1.65 ± 0.05 | 1.76 ± 0.037
24 | ELIQKYLGDGPRLCRQI [RPT2] | – | – | 2.76 ± 0.2 | –
25 | APIGKHYVVLDTNVVLQ [DIS3] | 2.93 ± 0.13 | 2.81 ± 0.14 | 2.04 ± 0.16 | 2.31 ± 0.12
26 | GKASLFAQGKRRYDRKQ [RPL42A] | 3.28 ± 0.11 | 3.09 ± 0.1 | 3.4 ± 0.088 | 3.4 ± 0.072
27 | DMVMATVKKGKPELRKK [RPL23A] | 3.49 ± 0.15 | 3.35 ± 0.18 | 3.54 ± 0.1 | 3.22 ± 0.11

Row | Sequence | protein stability index (doa10∆) | protein stability index (pdr5∆) | protein stability index (san1∆) | protein stability index (ubr1∆)
28 | DQVLNLCLTEFENCYLE [FAS1] | 3.15 ± 0.1 | 3.2 ± 0.099 | 3.18 ± 0.14 | 3.25 ± 0.048
29 | IKELLNITKNLKTFNGS [POP4] | 1.99 ± 0.13 | 2 ± 0.064 | 2.46 ± 0.056 | 2.21 ± 0.047
30 | TPAEMSRPATTTRNGFM [FAS2] | 2.35 ± 0.038 | 2.57 ± 0.041 | 2.52 ± 0.05 | 2.52 ± 0.042
31 | AVSRSMTDIWNTLIPES [ECM29] | 2.94 ± 0.067 | 3.05 ± 0.08 | 2.84 ± 0.054 | 3.03 ± 0.069
32 | NHASMDVYNRELDEHTT [BRR2] | 3.27 ± 0.068 | 3.16 ± 0.063 | 3.26 ± 0.047 | 3.26 ± 0.056
33 | QWYTLQSQLNVTLSQLV [MED8] | 1.54 ± 0.034 | 2.15 ± 0.032 | 1.85 ± 0.075 | 1.67 ± 0.032
34 | DSKKIKVDSPDDPFMTK [GAL11] | 2.55 ± 0.075 | 2.57 ± 0.074 | 2.5 ± 0.057 | 2.82 ± 0.04
35 | KMPGGFTITVARKYLQT [FAS2] | 1.24 ± 0.039 | 1.47 ± 0.065 | 1.21 ± 0.084 | 1.27 ± 0.052
36 | EEYVINLLKVSVDICNN [ECM29] | 2.15 ± 0.064 | 2.58 ± 0.063 | 2.7 ± 0.048 | 2.65 ± 0.053
37 | AEEDSLLSGEDLTLDDI [YJL039C/NUP192] | 3.62 ± 0.13 | 3.4 ± 0.11 | – | 3.43 ± 0.13
38 | IDADSLEDIYTSAHEAI [RPL5] | 2.98 ± 0.097 | 3.02 ± 0.11 | 2.9 ± 0.1 | 3.13 ± 0.056
39 | SPTESYSDIGGLESQIQ [RPT2] | 3.3 ± 0.14 | 3.53 ± 0.14 | 3.41 ± 0.06 | 3.29 ± 0.076
40 | YYVGQVMRNNESTETGY [DIS3] | 3.21 ± 0.069 | 3.19 ± 0.092 | 3.18 ± 0.055 | 3.23 ± 0.064
41 | ISVTDTEVERAKSLLKL [COR1] | 3.3 ± 0.1 | 3.26 ± 0.084 | 3.08 ± 0.053 | 3.24 ± 0.084
42 | LRNYLTPNVREEKQKSY [PUP1] | 3.41 ± 0.21 | 2.88 ± 0.15 | 3.39 ± 0.085 | 3.27 ± 0.16
43 | HKTFLVANVKDLETLTM [RPL32] | – | 3.39 ± 0.26 | 3.22 ± 0.09 | 2.83 ± 0.17
44 | ESYNQNDWKLETERLIS [SIN4] | 3.4 ± 0.09 | 3.21 ± 0.14 | 3.29 ± 0.066 | 3.15 ± 0.11
45 | LYDHWDKYHEQWIKFLL [SSN8] | 3.16 ± 0.2 | 3.1 ± 0.13 | 2.84 ± 0.071 | 2.72 ± 0.054
46 | AAAGGDAAAEEEKEEEA [RPP1B] | 3.32 ± 0.21 | 3.46 ± 0.16 | 3.16 ± 0.2 | 3.08 ± 0.23
47 | LELQVAQAFVELENSSP [RPS7A] | 3.15 ± 0.14 | 3.14 ± 0.15 | 2.92 ± 0.19 | 1.85 ± 0.11
48 | KPSLVDVHLLESKVYHK [RPN6] | 1.74 ± 0.045 | 1.9 ± 0.053 | 1.77 ± 0.086 | 2.05 ± 0.061
49 | TDLPIETAAMASLALAH [RPN1] | 1.5 ± 0.046 | 1.66 ± 0.043 | 1.58 ± 0.063 | 1.43 ± 0.045
50 | NKDLSELVIRLEKDAAD [YIL149C/MLP2] | 3.05 ± 0.078 | 3.15 ± 0.084 | 3.2 ± 0.061 | 3.15 ± 0.069
51 | GAIIGWTRGTGLMSANN [FAS2] | 2.89 ± 0.087 | 2.83 ± 0.083 | 3.08 ± 0.091 | 2.78 ± 0.29
52 | IRAGEFDVVLTTFEYII [SNF2] | 2.31 ± 0.14 | 2.56 ± 0.13 | 2.37 ± 0.11 | 2.59 ± 0.12
53 | MGAINNNIPSLTSFAEE [SNF6] | 3.2 ± 0.13 | 3.43 ± 0.1 | 3.37 ± 0.15 | 3.35 ± 0.1
